In patent US20060259987A1:
Read-outs that look alike come from different tables or passages of the source.

Experiments:
Experiment in all cases: cell-based or functional assay
factor Xa (human) = factor Xa (human) (UniProt P00742)
thrombin (human) = thrombin (human) (UniProt P00734)
[1] = target: human neutrophil cathepsin G (human) (UniProt P08311)
[2] = target: human neutrophil elastase (human) (UniProt P08246)
Chain of human neutrophil elastase (human) (P08246 30-247 limits assumed): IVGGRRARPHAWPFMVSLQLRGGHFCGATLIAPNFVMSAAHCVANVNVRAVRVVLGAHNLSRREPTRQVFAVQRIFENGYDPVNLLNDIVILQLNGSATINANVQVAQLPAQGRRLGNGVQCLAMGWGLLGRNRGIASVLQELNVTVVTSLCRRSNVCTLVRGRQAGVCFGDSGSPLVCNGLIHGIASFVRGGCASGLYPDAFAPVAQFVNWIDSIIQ

Chain of human neutrophil cathepsin G (human) (P08311 21-244 limits assumed): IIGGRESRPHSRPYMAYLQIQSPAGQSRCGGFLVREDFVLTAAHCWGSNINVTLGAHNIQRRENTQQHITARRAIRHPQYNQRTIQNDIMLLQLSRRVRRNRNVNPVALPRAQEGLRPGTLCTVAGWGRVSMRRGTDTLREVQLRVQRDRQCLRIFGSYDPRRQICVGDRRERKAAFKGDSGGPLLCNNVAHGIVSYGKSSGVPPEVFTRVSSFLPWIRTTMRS

ATIII S137A (from UniProt P01008 33-464)
IC50 fXa/UFH; HCA #4 (factor Xa (human)): 12 nM | rsd. Xa catG; CA #6; stg1 conc 200 (% of no-ATIII control) (factor Xa (human)): 0 | rsd. Xa catG; CA #13; stg1 conc 200 (% of no-ATIII control) (factor Xa (human)): 1 | rsd. Xa hne; CA #6; stg1 conc 200 (% of no-ATIII control) (factor Xa (human)): 81 | rsd. Xa hne; CA #13; stg1 conc 200 (% of no-ATIII control) (factor Xa (human)): 87 | rsd. Xa no add; CA #6; stg1 conc 200 (% of no-ATIII control) (factor Xa (human)): 0 | rsd. Xa no add; CA #13; stg1 conc 200 (% of no-ATIII control) (factor Xa (human)): 2 | IC50 IIa/UFH; HCA #4 (thrombin (human)): 13 nM | rsd. IIa catG; CA #6; stg1 conc 200 (% of no-ATIII control) (thrombin (human)): 0 | rsd. IIa catG; CA #13; stg1 conc 200 (% of no-ATIII control) (thrombin (human)): 1 | rsd. IIa hne; CA #6; stg1 conc 200 (% of no-ATIII control) (thrombin (human)): 81 | rsd. IIa hne; CA #13; stg1 conc 200 (% of no-ATIII control) (thrombin (human)): 89 | rsd. IIa no add; CA #6; stg1 conc 200 (% of no-ATIII control) (thrombin (human)): 0 | rsd. IIa no add; CA #13; stg1 conc 200 (% of no-ATIII control) (thrombin (human)): 4

human plasma-derived ATIII (from UniProt P01008 33-464)
IC50 fXa/UFH; HCA #4 (factor Xa (human)): 13 nM | rsd. Xa catG; CA #12; stg1 conc 200 (% of no-ATIII control) (factor Xa (human)): 1 | rsd. Xa catG; CA #17; stg1 conc 3 (% of no-ATIII control) (factor Xa (human)): 77 | rsd. Xa catG; CA #17; stg1 conc 7 (% of no-ATIII control) (factor Xa (human)): 12 | rsd. Xa catG; CA #17; stg1 conc 23 (% of no-ATIII control) (factor Xa (human)): -7 | rsd. Xa hne; CA #14; stg1 conc 200 (% of no-ATIII control) (factor Xa (human)): 101 | rsd. Xa hne; CA #17; stg1 conc 23 (% of no-ATIII control) (factor Xa (human)): 98 | rsd. Xa no add; CA #17; stg1 conc 1 (% of no-ATIII control) (factor Xa (human)): 90 | rsd. Xa no add; CA #17; stg1 conc 3 (% of no-ATIII control) (factor Xa (human)): 75 | rsd. Xa no add; CA #17; stg1 conc 23 (% of no-ATIII control) (factor Xa (human)): 1

plasma-derived ATIII (from UniProt P01008 33-464)
IC50 fXa/UFH; HCA #4 (factor Xa (human)): 13 nM | rsd. Xa catG; CA #12; stg1 conc 200 (factor Xa (human)): 1% | rsd. Xa catG; CA #17; stg1 conc 3 (factor Xa (human)): 77% | rsd. Xa catG; CA #17; stg1 conc 7 (factor Xa (human)): 12% | rsd. Xa catG; CA #17; stg1 conc 23 (factor Xa (human)): -7% | rsd. Xa hne; CA #14; stg1 conc 200 (factor Xa (human)): 101% | rsd. Xa hne; CA #17; stg1 conc 23 (factor Xa (human)): 98% | rsd. Xa no add; CA #17; stg1 conc 1 (factor Xa (human)): 90% | rsd. Xa no add; CA #17; stg1 conc 3 (factor Xa (human)): 75% | rsd. Xa no add; CA #17; stg1 conc 23 (factor Xa (human)): 1% | IC50 fXa/UFH; HCA #4 (factor Xa (human); record 2): 13 nM | rsd IIa, catG (CA #14, stg 1 conc 200) [1]: 1% | halflife, min (HNE/hep) [2]: 2.9 min | rsd IIa, HNE (CA #14, stg 1 conc 200) [2]: 100% | rsd Xa, HNE (CA #14, stg 1 conc 200) [2]: 101%

ATIII N135A (from UniProt P01008 33-464)
IC50 fXa/UFH; HCA #2 (factor Xa (human)): 17 nM | rsd. Xa catG; CA #8; stg1 conc 200 (factor Xa (human)): 1% | rsd. Xa catG; CA #8; stg1 conc 200 (% of no-ATIII control) (factor Xa (human)): 1 | rsd. Xa catG; CA #9; stg1 conc 200 (factor Xa (human)): 1% | rsd. Xa catG; CA #9; stg1 conc 200 (% of no-ATIII control) (factor Xa (human)): 1 | rsd. Xa hne; CA #8; stg1 conc 200 (factor Xa (human)): 90% | rsd. Xa hne; CA #8; stg1 conc 200 (% of no-ATIII control) (factor Xa (human)): 90 | rsd. Xa hne; CA #9; stg1 conc 200 (factor Xa (human)): 106% | rsd. Xa hne; CA #9; stg1 conc 200 (% of no-ATIII control) (factor Xa (human)): 106 | rsd. Xa no add; CA #8; stg1 conc 200 (factor Xa (human)): 1% | rsd. Xa no add; CA #8; stg1 conc 200 (% of no-ATIII control) (factor Xa (human)): 1 | rsd. Xa no add; CA #9; stg1 conc 200 (% of no-ATIII control) (factor Xa (human)): 2 | IC50 fXa/UFH; HCA #2 (factor Xa (human); record 2): 17 nM | rsd. IIa catG; CA #8; stg1 conc 200 (thrombin (human)): 0% | rsd. IIa catG; CA #8; stg1 conc 200 (% of no-ATIII control) (thrombin (human)): 0 | rsd. IIa catG; CA #9; stg1 conc 200 (thrombin (human)): 2% | rsd. IIa catG; CA #9; stg1 conc 200 (% of no-ATIII control) (thrombin (human)): 2 | rsd. IIa hne; CA #8; stg1 conc 200 (thrombin (human)): 90% | rsd. IIa hne; CA #8; stg1 conc 200 (% of no-ATIII control) (thrombin (human)): 90 | rsd. IIa hne; CA #9; stg1 conc 200 (thrombin (human)): 100% | rsd. IIa hne; CA #9; stg1 conc 200 (% of no-ATIII control) (thrombin (human)): 100 | rsd. IIa no add; CA #8; stg1 conc 200 (thrombin (human)): 1% | rsd. IIa no add; CA #8; stg1 conc 200 (% of no-ATIII control) (thrombin (human)): 1 | rsd. IIa no add; CA #9; stg1 conc 200 (thrombin (human)): 2% | rsd. IIa no add; CA #9; stg1 conc 200 (% of no-ATIII control) (thrombin (human)): 2
